Key:
[1] = target: FG domain comprising 52 GLFG 12mer repeat units; assay: FG phase partitioning (confocal microscopy); FG domain phase-separated by dilution from guanidinium hydrochloride, then fluorescent probe added; 50 mM Tris/HCl pH 7.5, 250 mM NaCl, 1 mM IP6; scanned after 1 h; partition coefficient = signal in the FG particle : outside
[2] = target: disulfide-stabilized HIV-1 CA hexamer (CA-P1A, A14C, E45C, W184A, M185A) (HIV-1); assay: SEC; Superdex 200 increase, 20 mM Tris/HCl pH 8.0, 150 mM NaCl, 100 µM IP6; peak fraction seen by negative-stain EM; disulfide-stabilised hexamer

Row | Substance | partition coefficient (in:out) [1] | stoichiometry N [2]
1 | 40 nm capsid spheres (CA-P1A/N21C/A22C) labelled with CA–EGFP (complex) | > 300 | 
2 | capsid-like particles (CLPs) assembled from wild-type CA, with encapsulated mCherry (complex) | > 750 | 
3 | disulfide-stabilized HIV-1 CA hexamer (CA-P1A, A14C, E45C, W184A, M185A) (complex) |  | 6
4 | mCherry | < 0.05 | 

From publication PMC10881386
